Source: publication PMC2756588

T1: Abp1, P15891
T1 sequence (P15891 535-592, looked up): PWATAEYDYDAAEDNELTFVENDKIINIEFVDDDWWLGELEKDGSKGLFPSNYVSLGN

T2: Bbc1, P47068
T2 sequence (P47068 1-78, looked up): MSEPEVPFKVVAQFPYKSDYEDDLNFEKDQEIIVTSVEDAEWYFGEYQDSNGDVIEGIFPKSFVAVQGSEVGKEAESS

T3: Boi1, P38041
T3 sequence (P38041 1-86, looked up): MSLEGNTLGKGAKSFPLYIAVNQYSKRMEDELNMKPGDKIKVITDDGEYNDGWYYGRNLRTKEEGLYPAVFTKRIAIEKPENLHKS

T4: Boi2, P39969
T4 sequence (P39969 32-116, looked up): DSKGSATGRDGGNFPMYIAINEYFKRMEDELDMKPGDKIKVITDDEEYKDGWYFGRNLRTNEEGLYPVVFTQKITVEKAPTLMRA

T5: Bud14, P27637
T5 sequence (P27637 247-328, looked up): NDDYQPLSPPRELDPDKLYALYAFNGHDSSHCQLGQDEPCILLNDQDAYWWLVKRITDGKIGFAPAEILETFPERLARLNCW

T6: Bzz1-1, P38822
T6 sequence (P38822 478-572, looked up): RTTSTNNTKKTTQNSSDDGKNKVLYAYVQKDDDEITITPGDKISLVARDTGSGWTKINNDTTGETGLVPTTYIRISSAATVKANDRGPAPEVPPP

T7: Bzz1-2, P38822
T7 sequence (P38822 568-633, looked up): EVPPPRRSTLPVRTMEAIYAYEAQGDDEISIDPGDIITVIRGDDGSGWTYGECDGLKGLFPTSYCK

T8: Cdc25, P04821
T8 sequence (P04821 50-136, looked up): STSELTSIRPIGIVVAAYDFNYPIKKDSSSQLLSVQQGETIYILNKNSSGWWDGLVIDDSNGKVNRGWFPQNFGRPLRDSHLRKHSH

T9: Cyk3, Q07533
T9 sequence (Q07533 1-83, looked up): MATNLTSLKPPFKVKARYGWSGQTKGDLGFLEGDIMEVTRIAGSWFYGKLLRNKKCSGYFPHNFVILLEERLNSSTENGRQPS

T10: Fus1, P11710
T10 sequence (P11710 432-512, looked up): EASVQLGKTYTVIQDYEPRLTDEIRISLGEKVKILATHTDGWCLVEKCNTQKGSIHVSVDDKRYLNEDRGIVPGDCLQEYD

T11: Hof1, Q05080
T11 sequence (Q05080 590-669, looked up): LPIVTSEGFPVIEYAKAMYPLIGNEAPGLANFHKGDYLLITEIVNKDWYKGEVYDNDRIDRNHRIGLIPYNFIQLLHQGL

T12: Hse1, P38753
T12 sequence (P38753 208-285, looked up): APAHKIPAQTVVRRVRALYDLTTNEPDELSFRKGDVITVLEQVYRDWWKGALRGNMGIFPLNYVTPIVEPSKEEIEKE

T13: Lsb1, P53281
T13 sequence (P53281 45-122, looked up): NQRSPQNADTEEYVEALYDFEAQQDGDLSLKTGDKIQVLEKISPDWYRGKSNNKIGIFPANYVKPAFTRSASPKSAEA

T14: Lsb3, P43603
T14 sequence (P43603 385-451, looked up): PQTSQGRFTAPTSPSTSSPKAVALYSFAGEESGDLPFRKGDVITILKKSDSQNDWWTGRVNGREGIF

T15: Lsb4, P32793
T15 sequence (P32793 402-468, looked up): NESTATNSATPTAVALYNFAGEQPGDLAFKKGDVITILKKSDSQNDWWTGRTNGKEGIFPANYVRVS

T16: Myo5, Q04439
T16 sequence (Q04439 1072-1160, looked up): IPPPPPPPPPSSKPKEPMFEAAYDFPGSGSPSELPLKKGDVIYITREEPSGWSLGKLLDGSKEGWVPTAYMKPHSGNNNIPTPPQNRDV

T17: Nbp2, Q12163
T17 sequence (Q12163 103-180, looked up): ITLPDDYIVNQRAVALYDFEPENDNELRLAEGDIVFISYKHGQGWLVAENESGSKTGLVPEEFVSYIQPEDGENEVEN

T18: Pex13, P80667
T18 sequence (P80667 295-386, looked up): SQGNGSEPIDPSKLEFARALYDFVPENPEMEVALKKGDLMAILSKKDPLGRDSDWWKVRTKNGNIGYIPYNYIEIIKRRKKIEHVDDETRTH

T19: Pin3, Q06449
T19 sequence (Q06449 53-122, looked up): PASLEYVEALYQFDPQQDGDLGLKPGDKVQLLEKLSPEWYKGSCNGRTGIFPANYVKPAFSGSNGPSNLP

T20: Sla1-2, P32790
T20 sequence (P32790 60-140, looked up): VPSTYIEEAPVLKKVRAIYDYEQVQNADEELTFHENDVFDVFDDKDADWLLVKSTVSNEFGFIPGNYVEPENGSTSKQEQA

T21: Sla1-3, P32790
T21 sequence (P32790 344-424, looked up): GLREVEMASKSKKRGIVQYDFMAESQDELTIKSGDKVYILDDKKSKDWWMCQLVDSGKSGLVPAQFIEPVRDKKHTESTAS


What was measured:
Test in all cases: SPOT array
[1] = target: T1, Abp1, P15891; details: median of control spots 935
[2] = target: T2, Bbc1, P47068; details: median of control spots 796
[3] = target: Bem1-1, P29366; details: median of control spots 4282
Bem1-1, P29366, sequence (P29366 55-141): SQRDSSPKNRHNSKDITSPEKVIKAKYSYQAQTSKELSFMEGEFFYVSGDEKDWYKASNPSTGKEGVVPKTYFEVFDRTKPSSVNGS

[4] = target: Bem1-2, P29366; details: median of control spots 4347
Bem1-2, P29366, sequence (P29366 139-227): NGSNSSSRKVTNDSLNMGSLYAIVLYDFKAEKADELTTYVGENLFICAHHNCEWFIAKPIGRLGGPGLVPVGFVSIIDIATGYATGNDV

[5] = target: T3, Boi1, P38041; details: median of control spots 1162
[6] = target: T4, Boi2, P39969; details: median of control spots 1161
[7] = target: T5, Bud14, P27637; details: median of control spots 956
[8] = target: T6, Bzz1-1, P38822; details: median of control spots 4446
[9] = target: T7, Bzz1-2, P38822; details: median of control spots 4538
[10] = target: T8, Cdc25, P04821; details: median of control spots 969
[11] = target: T9, Cyk3, Q07533; details: median of control spots 1451
[12] = target: T10, Fus1, P11710; details: median of control spots 1200
[13] = target: GST; details: median of control spots 978
[14] = target: T11, Hof1, Q05080; details: median of control spots 4086
[15] = target: T12, Hse1, P38753; details: median of control spots 1727
[16] = target: T13, Lsb1, P53281; details: median of control spots 388
[17] = target: T14, Lsb3, P43603; details: median of control spots 406
[18] = target: T15, Lsb4, P32793; details: median of control spots 397
[19] = target: Myo3, P36006; details: median of control spots 468
[20] = target: T16, Myo5, Q04439; details: median of control spots 471
[21] = target: T17, Nbp2, Q12163; details: median of control spots 357
[22] = target: T18, Pex13, P80667; details: median of control spots 1341
[23] = target: T19, Pin3, Q06449; details: median of control spots 2171
[24] = target: Rvs167, P39743; details: median of control spots 2707
Rvs167, P39743, sequence (P39743 419-482): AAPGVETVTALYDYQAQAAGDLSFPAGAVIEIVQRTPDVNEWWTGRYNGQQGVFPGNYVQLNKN

[25] = target: Sho1, P40073; details: median of control spots 1148
Sho1, P40073, sequence (P40073 287-367): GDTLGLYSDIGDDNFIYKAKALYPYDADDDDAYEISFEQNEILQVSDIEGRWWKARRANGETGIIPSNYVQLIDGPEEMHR

[26] = target: T20, Sla1-2, P32790; details: median of control spots 712
[27] = target: T21, Sla1-3, P32790; details: median of control spots 5475

Binder	SPOT intensity [1]	SPOT intensity [2]	SPOT intensity [3]	SPOT intensity [4]	SPOT intensity [5]	SPOT intensity [6]	SPOT intensity [7]	SPOT intensity [8]	SPOT intensity [9]	SPOT intensity [10]	SPOT intensity [11]	SPOT intensity [12]	SPOT intensity [13]	SPOT intensity [14]	SPOT intensity [15]	SPOT intensity [16]	SPOT intensity [17]	SPOT intensity [18]	SPOT intensity [19]	SPOT intensity [20]	further results
QRKSLRRPTLSKPAV	78	37	0	1	2	0	2	4	16	7	4	2	6	4	10	32	3	3	10	3	SPOT intensity [21]: 5; SPOT intensity [22]: 3; SPOT intensity [23]: 9; SPOT intensity [24]: 0; SPOT intensity [25]: 116; SPOT intensity [26]: 3; SPOT intensity [27]: 22
RKLRTVPGVPLIHLT	5	34	0	0	0	0	3	1	0	0	0	2	1	2	0	0	2	5	8	0	SPOT intensity [21]: 0; SPOT intensity [22]: 4; SPOT intensity [23]: 3; SPOT intensity [24]: 43; SPOT intensity [25]: 6; SPOT intensity [26]: 1; SPOT intensity [27]: 5
NRLRKRLNLPSEISI	36	74	0	3	12	3	7	6	13	42	8	321	1	45	99	459	3	0	4	2	SPOT intensity [21]: 32; SPOT intensity [22]: 2; SPOT intensity [23]: 17; SPOT intensity [24]: 0; SPOT intensity [25]: 58; SPOT intensity [26]: 1; SPOT intensity [27]: 141
KRKRRLPVSEDTNTK	78	77	1	0	6	2	22	3	1	16	8	150	6	0	4	1	8	4	9	0	SPOT intensity [21]: 8; SPOT intensity [22]: 0; SPOT intensity [23]: 4; SPOT intensity [24]: 1; SPOT intensity [25]: 54; SPOT intensity [26]: 0; SPOT intensity [27]: 21
